Reference: patent publication US20050002904A1, “Uses of vascular endothelial growth factor and type I collagen inducible protein (VCIP)” (priority 2003, published 2005)

System: VCIP
Experiment: VCIP mRNA induction by growth factors and cytokines in monolayer cells
Assay type: cell-based, human
Conditions: 6 h, northern blot
Procedure: FIGS. 1A-M show expression analysis and predicted amino acid sequence of VEGF and type I collagen inducible protein (VCIP). FIG. 1A: HUVECs were embedded into three-dimensional type I collagen gel in the presence of 20% adult human serum, 1× ITS and stimulated with VEGF^165 (100 ng/ml). Total RNA was prepared at the indicated time points. Northern blots were hybridized with a fragment of the VCIP (clone-33A) cDNA probe. The transcript size (3.4 kb) is indicated on the right. The numbers at the bottom of the gel represent the fold increase in VCIP mRNA levels, as compared with untreated cells. […] Total RNA was isolated at indicated time points and subjected to VCIP northern blot analysis. […] FIG. 1E: Poly(A)^+ RNA prepared from various human tissues was subjected to VCIP northern blot analysis by hybridization with the clone-33A cDNA probe. FIG. 1F: The blot shown in FIG. 1E was re-hybridized with a GAPDH probe, showing that equal amounts of RNA were loaded across the lanes. FIG. 1G: Detection of VCIP mRNA by RT-PCR (20 cycles): monolayer endothelial cells were treated for 30 min with: (1) untreated, (2) bFGF (20 ng/ml), (3) VEGF^165 (100 ng/ml), (4) PMA (20 ng/ml), (5) bFGF (20 ng/ml)+VEGF (100 ng/ml), (6) bFGF (20 ng/ml)+PMA (20 ng/ml), (7) VEGF (100 ng/ml)+PMA (20 ng/ml) and (8) bFGF (20 ng/ml)+VEGF (100 ng/ml)+PMA (20 ng/ml). […]

B1: EGF: growth factor (protein, UniProt P01133 23-1207, looked up)
Pro-epidermal growth factor: PQHWSCPEGTLAGNGNSTCVGPAPFLIFSHGNSIFRIDTEGTNYEQLVVDAGVSVIMDFHYNEKRIYWVDLERQLLQRVFLNGSRQERVCNIEKNVSGMAINWINEEVIWSNQQEGIITVTDMKGNNSHILLSALKYPANVAVDPVERFIFWSSEVAGSLYRADLDGVGVKALLETSEKITAVSLDVLDKRLFWIQYNREGSNSLICSCDYDGGSVHISKHPTQHNLFAMSLFGDRIFYSTWKMKTIWIANKHTGKDMVRINLHSSFVPLGELKVVHPLAQPKAEDDTWEPEQKLCKLRKGNCSSTVCGQDLQSHLCMCAEGYALSRDRKYCEDVNECAFWNHGCTLGCKNTPGSYYCTCPVGFVLLPDGKRCHQLVSCPRNVSECSHDCVLTSEGPLCFCPEGSVLERDGKTCSGCSSPDNGGCSQLCVPLSPVSWECDCFPGYDLQLDEKSCAASGPQPFLLFANSQDIRHMHFDGTDYGTLLSQQMGMVYALDHDPVENKIYFAHTALKWIERANMDGSQRERLIEEGVDVPEGLAVDWIGRRFYWTDRGKSLIGRSDLNGKRSKIITKENISQPRGIAVHPMAKRLFWTDTGINPRIESSSLQGLGRLVIASSDLIWPSGITIDFLTDKLYWCDAKQSVIEMANLDGSKRRRLTQNDVGHPFAVAVFEDYVWFSDWAMPSVMRVNKRTGKDRVRLQGSMLKPSSLVVVHPLAKPGADPCLYQNGGCEHICKKRLGTAWCSCREGFMKASDGKTCLALDGHQLLAGGEVDLKNQVTPLDILSKTRVSEDNITESQHMLVAEIMVSDQDDCAPVGCSMYARCISEGEDATCQCLKGFAGDGKLCSDIDECEMGVPVCPPASSKCINTEGGYVCRCSEGYQGDGIHCLDIDECQLGEHSCGENASCTNTEGGYTCMCAGRLSEPGLICPDSTPPPHLREDDHHYSVRNSDSECPLSHDGYCLHDGVCMYIEALDKYACNCVVGYIGERCQYRDLKWWELRHAGHGQQQKVIVVAVCVVVLVMLLLLSLWGAHYYRTQKLLSKNPKNPYEESSRDVRSRRPADTEDGMSSCPQPWFVVIKEHQDLKNGGQPVAGEDGQAADGSMQPTSWRQEPQLCGMGTEQGCWIPVSSDKGSCPQVMERSFHMPSYGTQTLEGGVEKPHSLLSANPLWQQRALDPPHQMELTQ
modifications: Pro-epidermal growth factor
For B1, the “induction of VCIP expression” value (A431 epidermoid carcinoma cells) was “strongly induced” and the “induction of VCIP expression” value (HdMVECs) was “but not to EGF”.
